Numbered stars: 1 amine (or outer) side, 2 acyl side, 3 side chain; on linkers, the order of the positions; unused ones are H or OH. Bridge positions count the residues as written; N and C are the ends. Square brackets hold non-standard residues; d marks the D form. Ends that are not written are not given here. * marks the point of attachment. 4‑Aminomethylphenylacetic acid = O=C(Cc1ccc(CN[*:1])cc1)[*:2]; NHCH2(1,3-C6H4)CH2CO = O=C(Cc1cccc(CN[*:1])c1)[*:2]; Phe(3-COOH) = N[C@@H](Cc1cccc(C(=O)O)c1)C(=O)O; Piperidin‑4‑ylacetic acid = O=C(CC1CCNCC1)*; Oic = O=C(O)[C@@H]1C[C@@H]2CCCC[C@@H]2N1; tBuAla = CC(C)(C)C[C@H](N)C(=O)O; PEG4 = NCCOCCOCCOCCOCCC(=O)O; Pen = CC(C)(S)[C@H](N)C(=O)O; NMeC = CN[C@@H](CS)C(=O)O; PEG3 = NCCOCCOCCOCCC(=O)O; Orn = NCCC[C@H](N)C(=O)O; Sar = CNCC(=O)O
T1: Recombinant human MASP1 enzyme (fragment corresponding to amino acids 297-699, C-terminal His Tag) (human, UniProt P48740 297-699)
T1 sequence: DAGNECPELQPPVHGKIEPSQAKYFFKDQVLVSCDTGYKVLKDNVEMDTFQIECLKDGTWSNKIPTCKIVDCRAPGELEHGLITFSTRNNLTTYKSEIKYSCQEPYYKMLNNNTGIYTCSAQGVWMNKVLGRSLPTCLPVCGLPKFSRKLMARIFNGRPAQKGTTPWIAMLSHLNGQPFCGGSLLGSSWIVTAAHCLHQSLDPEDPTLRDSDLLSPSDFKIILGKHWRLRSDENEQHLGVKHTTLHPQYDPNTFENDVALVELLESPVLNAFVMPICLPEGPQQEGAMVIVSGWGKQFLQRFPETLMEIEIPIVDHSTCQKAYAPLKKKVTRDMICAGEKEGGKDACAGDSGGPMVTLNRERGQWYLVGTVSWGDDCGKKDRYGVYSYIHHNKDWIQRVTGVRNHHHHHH

B1: aIC+SRSLP-(Oic)-I-(Pen)-+IP-(3-Aminomethylphenylacetic acid)-OH (peptide)
peptide: [dA]ICSRSLP[Oic]I[Pen]IP[NHCH2(1,3-C6H4)CH2CO]-OH
modifications: disulfide 3-11; N-terminus assumed
SMILES: CC[C@H](C)[C@H](NC(=O)[C@@H](C)N)C(=O)N[C@H]1CSSC(C)(C)[C@@H](C(=O)N[C@H](C(=O)N2CCC[C@H]2C(=O)NCc2cccc(CC(=O)O)c2)[C@@H](C)CC)NC(=O)[C@H]([C@@H](C)CC)NC(=O)[C@@H]2C[C@@H]3CCCC[C@@H]3N2C(=O)[C@@H]2CCCN2C(=O)[C@H](CC(C)C)NC(=O)[C@H](CO)NC(=O)[C@H](CCCNC(=N)N)NC(=O)[C@H](CO)NC1=O
B2: ((N-Me)G)-IC+SRSLP-(Oic)-I-(Pen)+IP-(4-Aminomethylphenylacetic acid)-OH (peptide)
peptide: [Sar]ICSRSLP[Oic]I[Pen]IP[4‑Aminomethylphenylacetic acid]-OH
modifications: disulfide 3-11; N-terminus assumed
SMILES: CC[C@H](C)[C@H](NC(=O)CNC)C(=O)N[C@H]1CSSC(C)(C)[C@@H](C(=O)N[C@H](C(=O)N2CCC[C@H]2C(=O)NCc2ccc(CC(=O)O)cc2)[C@@H](C)CC)NC(=O)[C@H]([C@@H](C)CC)NC(=O)[C@@H]2C[C@@H]3CCCC[C@@H]3N2C(=O)[C@@H]2CCCN2C(=O)[C@H](CC(C)C)NC(=O)[C@H](CO)NC(=O)[C@H](CCCNC(=N)N)NC(=O)[C@H](CO)NC1=O
B3: (beta-P)-IC+SRS-((tBu)A)-PPI-(Pen)+IPD-OH (peptide)
peptide: PICSRS[tBuAla]PPI[Pen]IPD-OH
modifications: disulfide 3-11; N-terminus assumed
SMILES: CC[C@H](C)[C@H](NC(=O)[C@@H]1CCCN1)C(=O)N[C@H]1CSSC(C)(C)[C@@H](C(=O)N[C@H](C(=O)N2CCC[C@H]2C(=O)N[C@@H](CC(=O)O)C(=O)O)[C@@H](C)CC)NC(=O)[C@H]([C@@H](C)CC)NC(=O)[C@@H]2CCCN2C(=O)[C@@H]2CCCN2C(=O)[C@H](CC(C)(C)C)NC(=O)[C@H](CO)NC(=O)[C@H](CCCNC(=N)N)NC(=O)[C@H](CO)NC1=O
B4: (Orn)-IC+SRS-((tBu)A)-PPI-((N-Me)C)+IPD-OH (peptide)
peptide: [Orn]ICSRS[tBuAla]PPI[NMeC]IPD-OH
modifications: disulfide 3-11; N-terminus assumed
SMILES: CC[C@H](C)[C@H](NC(=O)[C@@H](N)CCCN)C(=O)N[C@H]1CSSC[C@@H](C(=O)N[C@H](C(=O)N2CCC[C@H]2C(=O)N[C@@H](CC(=O)O)C(=O)O)[C@@H](C)CC)N(C)C(=O)[C@H]([C@@H](C)CC)NC(=O)[C@@H]2CCCN2C(=O)[C@@H]2CCCN2C(=O)[C@H](CC(C)(C)C)NC(=O)[C@H](CO)NC(=O)[C@H](CCCNC(=N)N)NC(=O)[C@H](CO)NC1=O
B5: ((N-Me)G)-IC+SRS-((tBu)A)-PPI-(Pen)+IP-(PEG3(16atoms))-OH (peptide)
peptide: [Sar]ICSRS[tBuAla]PPI[Pen]IP[PEG4]-OH
modifications: disulfide 3-11; N-terminus assumed
SMILES: CC[C@H](C)[C@H](NC(=O)CNC)C(=O)N[C@H]1CSSC(C)(C)[C@@H](C(=O)N[C@H](C(=O)N2CCC[C@H]2C(=O)NCCOCCOCCOCCOCCC(=O)O)[C@@H](C)CC)NC(=O)[C@H]([C@@H](C)CC)NC(=O)[C@@H]2CCCN2C(=O)[C@@H]2CCCN2C(=O)[C@H](CC(C)(C)C)NC(=O)[C@H](CO)NC(=O)[C@H](CCCNC(=N)N)NC(=O)[C@H](CO)NC1=O
B6: ((N-Me)G)-IC+SRS-((tBu)A)-PPI-(Pen)+IP-((3-Carboxy)F)-OH (peptide)
peptide: [Sar]ICSRS[tBuAla]PPI[Pen]IP[Phe(3-COOH)]-OH
modifications: disulfide 3-11; N-terminus assumed
SMILES: CC[C@H](C)[C@H](NC(=O)CNC)C(=O)N[C@H]1CSSC(C)(C)[C@@H](C(=O)N[C@H](C(=O)N2CCC[C@H]2C(=O)N[C@@H](Cc2cccc(C(=O)O)c2)C(=O)O)[C@@H](C)CC)NC(=O)[C@H]([C@@H](C)CC)NC(=O)[C@@H]2CCCN2C(=O)[C@@H]2CCCN2C(=O)[C@H](CC(C)(C)C)NC(=O)[C@H](CO)NC(=O)[C@H](CCCNC(=N)N)NC(=O)[C@H](CO)NC1=O
B7: (Piperidin-4-ylacetic acid)-IC+SRS-((tBu)A)-PPIC+IPD-OH (peptide)
peptide: {Piperidin‑4‑ylacetic acid}-ICSRS[tBuAla]PPICIPD-OH
modifications: disulfide 2-10
SMILES: CC[C@H](C)[C@H](NC(=O)CC1CCNCC1)C(=O)N[C@H]1CSSC[C@@H](C(=O)N[C@H](C(=O)N2CCC[C@H]2C(=O)N[C@@H](CC(=O)O)C(=O)O)[C@@H](C)CC)NC(=O)[C@H]([C@@H](C)CC)NC(=O)[C@@H]2CCCN2C(=O)[C@@H]2CCCN2C(=O)[C@H](CC(C)(C)C)NC(=O)[C@H](CO)NC(=O)[C@H](CCCNC(=N)N)NC(=O)[C@H](CO)NC1=O
B8: ((N-Me)G)-IC+SRSLP-(Oic)-I-(Pen)+IP-((3-Carboxy)F)-OH (peptide)
peptide: [Sar]ICSRSLP[Oic]I[Pen]IP[Phe(3-COOH)]-OH
modifications: disulfide 3-11; N-terminus assumed
SMILES: CC[C@H](C)[C@H](NC(=O)CNC)C(=O)N[C@H]1CSSC(C)(C)[C@@H](C(=O)N[C@H](C(=O)N2CCC[C@H]2C(=O)N[C@@H](Cc2cccc(C(=O)O)c2)C(=O)O)[C@@H](C)CC)NC(=O)[C@H]([C@@H](C)CC)NC(=O)[C@@H]2C[C@@H]3CCCC[C@@H]3N2C(=O)[C@@H]2CCCN2C(=O)[C@H](CC(C)C)NC(=O)[C@H](CO)NC(=O)[C@H](CCCNC(=N)N)NC(=O)[C@H](CO)NC1=O
B9: ((N-Me)G)-IC+SRSLP-(Oic)-I-(Pen)+IP-(3-Aminomethylphenylacetic acid)-OH (peptide)
peptide: [Sar]ICSRSLP[Oic]I[Pen]IP[NHCH2(1,3-C6H4)CH2CO]-OH
modifications: disulfide 3-11; N-terminus assumed
SMILES: CC[C@H](C)[C@H](NC(=O)CNC)C(=O)N[C@H]1CSSC(C)(C)[C@@H](C(=O)N[C@H](C(=O)N2CCC[C@H]2C(=O)NCc2cccc(CC(=O)O)c2)[C@@H](C)CC)NC(=O)[C@H]([C@@H](C)CC)NC(=O)[C@@H]2C[C@@H]3CCCC[C@@H]3N2C(=O)[C@@H]2CCCN2C(=O)[C@H](CC(C)C)NC(=O)[C@H](CO)NC(=O)[C@H](CCCNC(=N)N)NC(=O)[C@H](CO)NC1=O
B10: ((N-Me)G)-IC+SRSLP-(Oic)-I-(Pen)+IPD-(PEG2(13 atoms))-OH (peptide)
peptide: [Sar]ICSRSLP[Oic]I[Pen]IPD[PEG3]-OH
modifications: disulfide 3-11; N-terminus assumed
SMILES: CC[C@H](C)[C@H](NC(=O)CNC)C(=O)N[C@H]1CSSC(C)(C)[C@@H](C(=O)N[C@H](C(=O)N2CCC[C@H]2C(=O)N[C@@H](CC(=O)O)C(=O)NCCOCCOCCOCCC(=O)O)[C@@H](C)CC)NC(=O)[C@H]([C@@H](C)CC)NC(=O)[C@@H]2C[C@@H]3CCCC[C@@H]3N2C(=O)[C@@H]2CCCN2C(=O)[C@H](CC(C)C)NC(=O)[C@H](CO)NC(=O)[C@H](CCCNC(=N)N)NC(=O)[C@H](CO)NC1=O

What follows are binders tested against T1, Recombinant human MASP1 enzyme … (assay: cell-based or functional assay).

With B1 as the binder, how does the “human MASP1 IC50” value read?
Its value is 3.7 nM.

B2 was tested. Which “human MASP1 IC50” value did it give?
Its value is 3.8 nM.

For B3, which “human MASP1 IC50” value is on record?
The value was 3 nM.

Which “human MASP1 IC50” value does the source give for B4 here?
Its value is 5.85 nM.

For B5, which “human MASP1 IC50” value is on record?
The value was 2.1 nM.

For B6, which “human MASP1 IC50” value is on record?
The value was 2.8 nM.

For B7, which “human MASP1 IC50” value is on record?
The value was 26 nM.

For B8, which “human MASP1 IC50” value is on record?
Its value is 5.4 nM.

Which “human MASP1 IC50” value does the source give for B9 here?
The value was 9.6 nM.

How did the “human MASP1 IC50” value turn out when B10 was run?
Its value is 5.5 nM.

The binders below were run against Recombinant human MASP2 enzyme (fragment corresponding to amino acids 297-686, C-terminal His Tag) (human, UniProt O00187 297-686) (assay: cell-based or functional assay).
Recombinant human MASP2 enzyme (fragment corresponding to amino acids 297-686, C-terminal His Tag), sequence (O00187 other isoform, or with tags, fused parts or gaps limits assumed): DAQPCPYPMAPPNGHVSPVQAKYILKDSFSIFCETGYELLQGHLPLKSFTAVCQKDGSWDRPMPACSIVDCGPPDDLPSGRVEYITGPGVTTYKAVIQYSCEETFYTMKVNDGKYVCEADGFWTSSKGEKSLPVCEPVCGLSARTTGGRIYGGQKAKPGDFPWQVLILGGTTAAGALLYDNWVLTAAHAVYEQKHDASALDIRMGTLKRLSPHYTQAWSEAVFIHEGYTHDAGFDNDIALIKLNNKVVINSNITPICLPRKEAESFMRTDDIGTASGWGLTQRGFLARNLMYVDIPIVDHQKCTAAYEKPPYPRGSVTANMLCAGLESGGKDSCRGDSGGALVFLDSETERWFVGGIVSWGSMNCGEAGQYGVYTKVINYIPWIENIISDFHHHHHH

For B1, which “human MASP2 IC50” value is on record?
The value was 37 nM.

Which “human MASP2 IC50” value does the source give for B2 here?
The value was 61 nM.

With B3 as the binder, how does the “human MASP2 IC50” value read?
Its value is 35 nM.

For B4, which “human MASP2 IC50” value is on record?
The value was 175 nM.

Which “human MASP2 IC50” value does the source give for B5 here?
Its value is 35 nM.

How did the “human MASP2 IC50” value turn out when B6 was run?
Its value is 25 nM.

How did the “human MASP2 IC50” value turn out when B7 was run?
The value was 18 nM.

B8 was tested. Which “human MASP2 IC50” value did it give?
Its value is 64 nM.

With B9 as the binder, how does the “human MASP2 IC50” value read?
The value was 172 nM.

For B10, which “human MASP2 IC50” value is on record?
Its value is 120 nM.

Reference: patent US20210246166A1 (Bayer, published 2021)
